Two substances from patent US20240124560A1 can be followed below.

One assay addresses 2F5-specific peptide. As to the kind of experiment: ELISA on peptide MPER (659-671), antibody titrated. (In general: In an ELISA, binding on a coated surface is turned into a signal by an enzyme label.)
In assay [1] the target is HIV-1 Env of isolate COT6, mutant D674E (HIV-1). As to the kind of experiment: cell-based or functional assay.
In assay [2] the target is HIV-1 Env of isolate COT6, mutant D674T (HIV-1). As to the kind of experiment: cell-based or functional assay.
Assay [3] concerns the target HIV-1 Env of isolate COT6 (wild-type) (HIV-1). As to the kind of experiment: cell-based or functional assay.

Turning to 2F5 (antibody), in the assay with 2F5-specific peptide, the EC50 (read off the curve) amounted to 6 ng/mL.

As for 10E8 (antibody), the Fold increase in IC50 relative to wild-type COT6 in assay [1] stood at 17.5 fold; in assay [2], 36 fold. Besides, the Fold increase in IC50 (wild-type COT6, the reference) in assay [3] worked out at 1 fold.

As usually defined, the EC50 (read off the curve) is the midpoint of the concentration-response curve. Low values mean a more potent agent, high ones a less potent agent.
